Assay results reported in paper PMC5843810, “18th European Symposium on Radiopharmacy and Radiopharmaceuticals” (EJNMMI Radiopharmacy and Chemistry, 2016).

Biological target: Gastrin-Releasing Peptide Receptor (human (endogenous in PC3)) (UniProt P30550)
Experiment: radioligand binding; displacement of the small-molecule tracer [18F]PD410 from PC3 cells by increasing concentrations of the peptide

Gastrin-Releasing Peptide Receptor (human (endogenous in PC3)), sequence (P30550 whole entry): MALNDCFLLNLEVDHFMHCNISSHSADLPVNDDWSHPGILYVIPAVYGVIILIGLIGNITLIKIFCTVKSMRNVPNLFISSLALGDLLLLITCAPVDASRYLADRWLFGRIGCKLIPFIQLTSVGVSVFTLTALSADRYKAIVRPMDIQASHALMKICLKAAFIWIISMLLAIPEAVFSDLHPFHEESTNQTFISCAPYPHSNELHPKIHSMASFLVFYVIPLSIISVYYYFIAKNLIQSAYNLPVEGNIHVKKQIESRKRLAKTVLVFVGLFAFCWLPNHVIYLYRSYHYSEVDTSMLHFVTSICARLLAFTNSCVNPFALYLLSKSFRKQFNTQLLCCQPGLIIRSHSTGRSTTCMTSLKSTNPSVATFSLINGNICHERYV

IC50: 100 pM
Substance: Glu[Aca-BN(7-14)]2 (peptide)
